{"source": "patent US6960343B2", "about": "“Toll/interleukin-1 receptor adapter protein (TIRAP)” (Yale University School of Medicine, priority 2001, dated 2005)", "key": {"PACT": {"target": "T1, PACT (Homo sapiens, UniProt O75569)", "T1 construct": "expressed in transfected cells; host or cells: 293T cells", "T1 sequence (O75569 1-313)": "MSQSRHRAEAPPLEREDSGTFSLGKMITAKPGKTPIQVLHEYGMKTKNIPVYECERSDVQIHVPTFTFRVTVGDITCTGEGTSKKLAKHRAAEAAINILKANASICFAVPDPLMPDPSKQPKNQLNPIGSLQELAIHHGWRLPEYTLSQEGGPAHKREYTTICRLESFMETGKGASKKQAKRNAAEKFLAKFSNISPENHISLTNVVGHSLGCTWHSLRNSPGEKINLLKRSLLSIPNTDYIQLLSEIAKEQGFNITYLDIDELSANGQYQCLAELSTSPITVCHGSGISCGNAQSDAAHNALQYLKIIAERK", "assay": "Co-immunoprecipitation with PACT in 293T cells", "format": "binding", "settings": "293T cell lysates", "procedure": "(§1) Because TIRAP may not regulate PKR directly, the interaction between TIRAP and two other proteins, p58 and PACT, was analyzed. p58 is a tetratricopeptide repeat-containing protein that negatively regulates PKR activity (Lee 1994), and PACT is a dsRNA-binding domain-containing protein that activates PKR in response to cellular stress (Patel 19980). Lysates from 293T cells transfected with either p58-encoding vector (3.5 μg) or PACT (3.5 μg) and Flag TIRAP (1.5 μg) were subject to immunoprecipitation analyses followed by SDS-PAGE and immunoblotting with the indicated antibodies."}, "NF-κB promoter": {"system": "NF-κB promoter", "assay": "NF-κB-dependent luciferase reporter assay, 293T cells co-transfected with TIRAP constructs", "settings": "2.0 μg construct, 24 h post-transfection", "quoted_text": "To determine the effect of various TIRAP constructs on the promoter activity of NF-κB, 293T cells were co-transfected with 2.0 μg of the indicated TIRAP construct and 0.1 μg of an NF-κB-dependent luciferase reporter gene. pcDNA3 is an empty vector control; TIRAP is a vector encoding the full length TIRAP protein; TIRAP N is a vector encoding the N-terminal domain of TIRAP; TIRAP C is a vector encoding the C terminal domain of TIRAP; and TIRAP P125H is a vector encoding a mutant form of TIRAP containing a proline to histidine mutation at amino acid position 125. Cells were harvested 24 h post-transfection and lysed for analysis in a standard luciferase reporter assay. Luciferase activity is expressed as fold induction relative to mock transfected cells (FIG. 2A)."}, "MyD88": {"target": "T2, MyD88 (Homo sapiens, UniProt Q99836)", "T2 construct": "Flag; expressed in transfected cells; host or cells: 293T cells", "assay": "Co-immunoprecipitation with Flag-tagged MyD88 in 293T cells", "format": "binding", "settings": "293T cell lysates", "excerpt": "(§2) Cells were transfected in the presence (+) or absence (−) of constructs encoding a wild-type portion of TLR4 (TLR4 wt), a mutant derivative thereof (TLR4 mut), wild-type TIRAP (TIRAP), a mutant TIRAP containing a P125H mutation (TIRAP PH), or wild-type MyD88 (MyD88), wherein each construct further encodes a Myc, Flag, or hemaglutanin (HA) tag, as indicated. Antibodies used for immunoprecipitation (IP) or immunoblot (IB) are indicated to the left of each blot.\n(§3) To obtain biochemical conformation for a role of TIRAP in the TLR4 signaling pathway, TIRAP-TLR4 protein interactions were evaluated using co-immunoprecipitation experiments. […] Immunocomplexes were washed, separated by SDS-PAGE electrophoresis, and then analyzed by immunoblotting with either anti-myc antibody to look for co-immunoprecipitated TLR4 or anti-Flag antibody to confirm immunoprecipitation of Flag TIRAP or Flag TIRAP P125H. Total cell lysates (35 μg/sample) were likewise analyzed by SDS-PAGE and immunoblotting to confirm equivalent expression of the appropriate proteins in every sample. […]\n(§4) Similarly, the interaction between TIRAP and MyD88 was examined. […] Direct interactions between TIRAP and the TIR domain of TLR4 was also detected using in vitro glutathione S transferase (GST) pull-down assays."}, "p58": {"system": "p58", "assay": "Co-immunoprecipitation with p58 in 293T cells", "format": "binding", "settings": "293T cell lysates", "procedure": "(§5) (A) Bone marrow-derived macrophages from either wild-type (WT) or MyD88-deficient (MyD88^−/−) mice were stimulated for the indicated time periods (minutes) with either LPS or CpG, and immunoblots were performed using an antibody that specifically recognizes phosphorylated PKR (PKR-P). B and C Cells were transfected with constructs encoding Flag-tagged TIRAP and either a construct encoding an HA-tagged kinase dead mutant of PKR (HA PKR KD) or p58, as indicated. Antibodies used for immunoprecipitation (IP) or immunoblot (IB) are indicated to the left of each blot, and arrows on the right show the location of the indicated proteins.\nas §1"}, "PKR": {"system": "PKR", "assay": "Co-immunoprecipitation with HA PKR kinase dead mutant in 293T cells", "format": "binding", "settings": "293T cell lysates", "procedure": "as §5\nTo determine whether PKR and TIRAP interact, lysates from 293T cells transfected with either 3.5 μg of an HA PKR kinase dead (KD) mutant […] 1.5 μg of Flag TIRAP were subjected to immunoprecipitation analyses as described above, followed by SDS-PAGE and immunoblotting with the indicated antibodies. The PKR KD mutant rather than wild type PKR was used because overexpressing PKR induces cell death. PKR did, in fact, co-immunoprecipitate with TIRAP (FIG. 4B), further supporting the link between PKR and TIRAP established above."}, "TIR domain of TLR4": {"target": "T3, TIR domain of TLR4 (Homo sapiens, UniProt O00206)", "T3 sequence (O00206 672-815 limits assumed)": "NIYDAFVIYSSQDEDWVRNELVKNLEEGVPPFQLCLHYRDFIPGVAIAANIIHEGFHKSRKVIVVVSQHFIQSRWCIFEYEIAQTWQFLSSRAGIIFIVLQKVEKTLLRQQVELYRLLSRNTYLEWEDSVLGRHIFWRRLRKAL", "assay": "In vitro glutathione S transferase (GST) pull-down assay", "format": "binding", "procedure": "Similarly, the interaction between TIRAP and MyD88 was examined. 293T cells were transfected with 1.5 μg of either HA-tagged TIRAP (HA TIRAP) alone or in combination with 1.5 μg of either Flag-tagged MyD88 (Flag MyD88), Flag-tagged TIRAP (Flag-TIRAP), or Flag-tagged TIRAP P125H (Flag TIRAP PH). Immunoprecipitation and analyses of immunocomplexes as well as total cell lysates were done as described above. […] Direct interactions between TIRAP and the TIR domain of TLR4 was also detected using in vitro glutathione S transferase (GST) pull-down assays."}, "TLR4": {"target": "T4, TLR4 (Homo sapiens, UniProt O00206)", "T4 construct": "a Myc-tagged TLR4 deletion construct lacking the ectodomain (Myc TLR4 wt); Myc; expressed in transfected cells; host or cells: 293T cells", "T4 sequence (O00206 653-839 limits assumed)": "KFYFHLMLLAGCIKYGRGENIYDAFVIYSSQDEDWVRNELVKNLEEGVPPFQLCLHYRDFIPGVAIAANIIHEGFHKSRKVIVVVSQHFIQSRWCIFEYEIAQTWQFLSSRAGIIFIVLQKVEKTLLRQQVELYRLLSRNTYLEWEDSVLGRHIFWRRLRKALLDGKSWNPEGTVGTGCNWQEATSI", "assay": "Co-immunoprecipitation with Myc-tagged TLR4 in 293T cells", "format": "binding", "settings": "293T cell lysates, anti-Flag immunoprecipitation", "excerpt": "as §2\nas §3, with “experiments. 293T cells were co-transfected with 4.5 μg of a Myc-tagged TLR4 deletion construct lacking the ectodomain (Myc TLR4 wt) or its mutant derivative (Myc TLR4 P714H) in the presence or absence of 1.5 μg of Flag-tagged TIRAP (Flag TIRAP) or its mutant derivative containing the P125H mutation (Flag TIRAP PH).” for “experiments.”"}, "TIRAP": {"target": "T5, TIRAP (Homo sapiens, UniProt P58753)", "T5 construct": "Flag; expressed in transfected cells; host or cells: 293T cells", "T5 sequence (P58753 1-235 isoform P58753-2)": "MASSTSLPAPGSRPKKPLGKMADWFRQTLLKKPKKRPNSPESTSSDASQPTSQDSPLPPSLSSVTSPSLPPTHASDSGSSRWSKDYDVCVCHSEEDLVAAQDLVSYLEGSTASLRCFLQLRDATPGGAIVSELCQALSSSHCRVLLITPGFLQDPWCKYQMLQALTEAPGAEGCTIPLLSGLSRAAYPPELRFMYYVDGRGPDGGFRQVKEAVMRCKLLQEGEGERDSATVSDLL", "assay": "Co-immunoprecipitation of HA TIRAP with Flag TIRAP (homodimerization)", "format": "binding", "settings": "293T cell lysates", "excerpt": "as §2, §3, §4"}, "IRAK": {"target": "IRAK (Homo sapiens, UniProt P51617)", "sequence (P51617 whole entry, species assumed)": "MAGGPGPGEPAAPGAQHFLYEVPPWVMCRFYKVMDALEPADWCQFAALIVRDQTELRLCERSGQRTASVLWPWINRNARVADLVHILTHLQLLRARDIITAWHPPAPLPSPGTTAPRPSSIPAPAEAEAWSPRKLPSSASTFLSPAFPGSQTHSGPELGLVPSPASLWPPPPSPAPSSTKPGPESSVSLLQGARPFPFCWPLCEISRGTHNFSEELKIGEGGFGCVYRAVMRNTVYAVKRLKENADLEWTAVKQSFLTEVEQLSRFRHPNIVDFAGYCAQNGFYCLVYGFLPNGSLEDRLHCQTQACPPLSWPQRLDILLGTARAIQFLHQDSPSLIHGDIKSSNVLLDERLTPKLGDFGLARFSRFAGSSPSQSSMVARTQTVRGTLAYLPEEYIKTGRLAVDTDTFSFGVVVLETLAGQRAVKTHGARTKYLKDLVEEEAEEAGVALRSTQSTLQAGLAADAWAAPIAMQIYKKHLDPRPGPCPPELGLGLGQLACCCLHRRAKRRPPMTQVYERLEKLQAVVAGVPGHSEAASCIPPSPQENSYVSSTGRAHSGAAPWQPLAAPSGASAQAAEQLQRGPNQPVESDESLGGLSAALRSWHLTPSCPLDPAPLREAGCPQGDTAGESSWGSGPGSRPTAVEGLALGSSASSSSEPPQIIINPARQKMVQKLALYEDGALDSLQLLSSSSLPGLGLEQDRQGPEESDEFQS", "assay": "Association with IRAK", "format": "binding"}}, "data": [{"substance": "TIRAP: vector encoding the full length TIRAP protein (Toll/Interleukin-1 Receptor Adapter Protein)", "values": [{"measurement": "co-immunoprecipitation with PACT", "setting": "PACT", "value": "immunoprecipitate"}, {"measurement": "activation of the NF-κB promoter, luciferase activity as fold induction relative to mock transfected cells", "setting": "NF-κB promoter", "value": "approximately 80 fold induction"}, {"measurement": "interaction with MyD88 (co-immunoprecipitation)", "setting": "MyD88", "value": "does not interact"}, {"measurement": "co-immunoprecipitation with p58", "setting": "p58", "value": "immunoprecipitate"}, {"measurement": "co-immunoprecipitation with PKR", "setting": "PKR", "value": "co-immunoprecipitate"}, {"measurement": "direct interaction with the TIR domain of TLR4", "setting": "TIR domain of TLR4", "value": "detected"}, {"measurement": "co-immunoprecipitation with TLR4", "setting": "TLR4", "value": "co-immunoprecipitate"}, {"measurement": "co-immunoprecipitation of TIRAP with itself (homodimerization)", "setting": "TIRAP", "value": "can be co-immunoprecipitated with itself"}, {"measurement": "association with IRAK", "setting": "IRAK", "value": "failed to associate"}]}]}
